Experimental data: doi:10.1101/2024.12.10.627789

Target: CAM1
Experiment: ITC

- Kd: 255 nM
Substance: CBD peptide of eEF2K
